This is an account of results in publication PMC2880568 (PLoS Pathogens, 2010).

Holding throughout (conditions): both partners purified
For test [1], the target named is T1, EloBC (elongin B - elongin C heterodimer) (UniProt Q15370 1-118; Q15369 16-111).
T1 construct: also called EloB-EloC heterodimer; full length EloBC
The test can be described thus: ITC. (Isothermal titration calorimetry measures the heat released or taken up as one component is titrated into another.)

Test [2] concerns the target T1, EloBC (elongin B - elongin C …). Description: SEC. Background: SEC sorts molecules by how far they enter the pores of the column.
The target is the same in test [3]. Description: NMR titration.

T1 sequence (Q15370 whole entry, chain 1 of 2): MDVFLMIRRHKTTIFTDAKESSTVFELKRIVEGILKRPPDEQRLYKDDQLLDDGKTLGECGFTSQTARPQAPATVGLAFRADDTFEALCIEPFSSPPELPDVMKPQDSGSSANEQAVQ
T1 sequence (Q15369 16-111, chain 2 of 2): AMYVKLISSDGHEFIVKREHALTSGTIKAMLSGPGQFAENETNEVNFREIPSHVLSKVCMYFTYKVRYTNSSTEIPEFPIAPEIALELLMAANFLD

B1: wild type Vif SOCS-box protein (domain or fragment)
chain: not shown
notes: source: E. coli BL21(DE3), purified (Ni-NTA, Superdex 75)
The term Kd denotes the concentration at which binding is half-saturated. Read a low Kd as tighter binding. For orientation: stoichiometry N means a count of units in the complex or per binding partner. For B1, in test [1], the Kd amounted to 1200 nM. In test [2], the “stoichiometry N” value came out at 1. Further, in test [3], the “KD fitted to the peak of EloB Asp-101” value is 1710 nM, the “KD fitted to the peak of EloB Lys-104” value worked out at 3560 nM, the “KD fitted to the peak of EloB Met-103” value was found to be 1730 nM and the “KD fitted to the peak of EloB Val-102” value was 430 nM.

B2: ΔPPL Vif SOCS-box protein (domain or fragment)
chain: HNKVGSLQYLALAALITPKKIKAAAPSVTKLTEDRWNK
notes: as for B1
The molecule B2 registered a Kd in test [1] of 1250 nM.
